Experimental data from patent US20250276090A1, “Methods and Compositions for Genetically Modifying a Cell” (Intellia Therapeutics, Inc., priority 2022, published 2025).
Strand notation (5' to 3'): a small letter for the sugar, then the base; units joined by * are phosphorothioate-linked, units joined directly phosphodiester-linked; [ ] holds rarer units or linkages, { } end groups; capitals alone tell only the bases. m = 2'-O-methyl; r = 2'-OH (RNA)

System: AAVS1
Assay: GFP insertion at AAVS1 in T cells with SpyCas9 RNP and gapped AAV templates, flow cytometry (Example 6)
Type: cell-based, human
Conditions: day 7 post-editing
Experimental: AAVS1 guide RNAs were designed and screened to identify insertion SpyCas9 guides using a series of gapped AAV GFP templates (A, B, C, D, OG) each designed for a subset of the guide RNAs. Insertion efficacy in T cells was examined by assessing GFP expression by flow cytometry. The percentage of T cells positive for green fluorescent protein (“% GFP+”) was assayed by flow cytometry, following AAVS1 editing by mRNA and AAV delivery.
Healthy human donor apheresis was obtained commercially (Hemacare) from two donors (#110042863 and #110040377) and cells were washed and resuspended in MACS Buffer containing 2 mM EDTA and 0.5% Fetal Bovine Serum (FBS) in PBS. Cells were washed twice by centrifugation followed by CD3 negative selection using Easy Sep Human T Cell Isolation Kit (Stemcell, Cat. 100-0695) and separated using Easy Sep Magnets (Stemcell, Cat.18000). T cells were aliquoted and cryopreserved for future use in Cryostor® CS10 (StemCell Technologies Cat. 07930).
AAVS1 guide RNAs were assessed for insertion efficacy in T cells by assessing GFP expression by flow cytometry. The percentage of T cells positive for green fluorescent protein (“% GFP+”) was assayed by flow cytometry, following AAVS1 editing by mRNA and AAV delivery.
AAVS1 targeting sgRNAs corresponding to the flanking homology regions of Gap Templates A, B, C, D, & OG (SEQ ID NOs: 299-303) were removed from their storage plates and denatured for 2 minutes at 95° C. before cooling at room temperature for 10 minutes. RNP mixture of 20 μM sgRNA and 10 μM Cas9-NLS protein (SEQ ID NO: 296) was prepared and incubated at 25° C. for 10 minutes. 2.5 μL of RNP mixture was combined with 250,000 cells in […] P3 electroporation Buffer (Lonza). 22 μL of RNP/cell mix was transferred to the corresponding wells of a Lonza shuttle 96-well electroporation plate. Cells were electroporated in duplicate with the manufacturer's pulse code. T cell media described above without any cytokines was added to the cells immediately post electroporation. T cells were rested for 10 minutes at 37° C. Gap Template AAVs were prepared in 48 well plates (Corning, Cat.353078)) with T cell media described above containing 2× cytokines, 400 U/mL recombinant human interleukin-2 (Peprotech, Cat. 200-02), 10 ng/ml recombinant human interleukin 7 (Peprotech, Cat. 200-07), and 10 ng/ml recombinant human interleukin 15 (Peprotech, Cat. 200-15) cytokines. The multiplicity of infection (MOI) of AAVs was 3×10^^5. AAVs were added to the T cells within 15 minutes post electroporation and incubated for 48 hours at 37° C. AAV-6 vectors encoded AAVS1 Template A, B, C, D or OG. Two days post-electroporation, cells were split 1:2 in 48 well plates replenished with T cell media with 1× cytokines as described above. sgRNAs were tested each with AAV constructs and gapped template.
On day 7 post-editing, cells were phenotyped by flow cytometry to determine GFP expression to confirm integration of AAV at their GAP template site. Briefly, T cells were washed in FACS buffer containing 2 mM EDTA (Invitrogen, Cat.15575020) and 1% FBS in PBS followed by re-suspending in FACS buffer containing 1:10,000 dilution of DAPI (Biolegend, Cat.422801) nuclear stain. Cells were then processed on a Cytoflex flow cytometer (Beckman Coulter) and analyzed using the FlowJo software package. T cells were gated based on size, shape, viability, and GFP expression. Values that were not determined by the flow cytometer were denoted as “ND”. Table 18 and FIGS. 8A-8B show mean percentage of T cells positive for GFP expression.

B1: G013523: AAVS1 SpyCas9 guide RNA, guide sequence SEQ ID NO: 255, chr19:55115637-55115657 (nucleic acid)
guide: mG*mG*mU*rGrArCrArCrArCrCrCrCrCrArUrUrUrCrCrGrUrUrUrUrArGrAmGmCmUmAmGmAmAmAmUmAmGmCrArArGrUrUrArArArArUrArArGrGrCrUrArGrUrCrCrGrUrUrArUrCrAmAmCmUmUmGmAmAmAmAmAmGmUmGmGmCmAmCmCmGmAmGmUmCmGmGmUmGmCmU*mU*mU*mU
Mean percentage of T cells positive for GFP expression (Donor 1, Template D): 70.50%
Mean percentage of T cells positive for GFP expression (Donor 2, Template D): 72.05%

B2: G013582: AAVS1 SpyCas9 guide RNA, guide sequence SEQ ID NO: 263, chr19:55115951-55115971 (nucleic acid)
guide: mC*mC*mU*rGrUrCrArUrGrGrCrArUrCrUrUrCrCrArGrGrUrUrUrUrArGrAmGmCmUmAmGmAmAmAmUmAmGmCrArArGrUrUrArArArArUrArArGrGrCrUrArGrUrCrCrGrUrUrArUrCrAmAmCmUmUmGmAmAmAmAmAmGmUmGmGmCmAmCmCmGmAmGmUmCmGmGmUmGmCmU*mU*mU*mU
Mean percentage of T cells positive for GFP expression (Donor 1, Template A): 66.30%
Mean percentage of T cells positive for GFP expression (Donor 2, Template A): 61.00%

B3: G013584: AAVS1 SpyCas9 guide RNA, guide sequence SEQ ID NO: 264, chr19:55115949-55115969 (nucleic acid)
guide: mC*mC*mC*rUrGrGrArArGrArUrGrCrCrArUrGrArCrArGrUrUrUrUrArGrAmGmCmUmAmGmAmAmAmUmAmGmCrArArGrUrUrArArArArUrArArGrGrCrUrArGrUrCrCrGrUrUrArUrCrAmAmCmUmUmGmAmAmAmAmAmGmUmGmGmCmAmCmCmGmAmGmUmCmGmGmUmGmCmU*mU*mU*mU
Mean percentage of T cells positive for GFP expression (Donor 1, Template A): 69.15%
Mean percentage of T cells positive for GFP expression (Donor 2, Template A): 62.95%

B4: G013533: AAVS1 SpyCas9 guide RNA, guide sequence SEQ ID NO: 256, chr19:55115691-55115711 (nucleic acid)
guide: mA*mG*mA*rCrCrCrArArUrArUrCrArGrGrArGrArCrUrGrUrUrUrUrArGrAmGmCmUmAmGmAmAmAmUmAmGmCrArArGrUrUrArArArArUrArArGrGrCrUrArGrUrCrCrGrUrUrArUrCrAmAmCmUmUmGmAmAmAmAmAmGmUmGmGmCmAmCmCmGmAmGmUmCmGmGmUmGmCmU*mU*mU*mU
Mean percentage of T cells positive for GFP expression (Donor 1, Template C): 65.65%
Mean percentage of T cells positive for GFP expression (Donor 2, Template C): 65.15%

B5: G013563: AAVS1 SpyCas9 guide RNA, guide sequence SEQ ID NO: 260, chr19:55115835-55115855 (nucleic acid)
guide: mA*mU*mA*rUrArArGrGrUrGrGrUrCrCrCrArGrCrUrCrGrUrUrUrUrArGrAmGmCmUmAmGmAmAmAmUmAmGmCrArArGrUrUrArArArArUrArArGrGrCrUrArGrUrCrCrGrUrUrArUrCrAmAmCmUmUmGmAmAmAmAmAmGmUmGmGmCmAmCmCmGmAmGmUmCmGmGmUmGmCmU*mU*mU*mU
Mean percentage of T cells positive for GFP expression (Donor 1, Template A): 73.15%
Mean percentage of T cells positive for GFP expression (Donor 1, Template B): 69.15%
Mean percentage of T cells positive for GFP expression (Donor 2, Template A): 69.40%
Mean percentage of T cells positive for GFP expression (Donor 2, Template B): 71.35%

B6: G013520: AAVS1 SpyCas9 guide RNA, guide sequence SEQ ID NO: 254, chr19:55115623-55115643 (nucleic acid)
guide: mG*mA*mG*rArGrArUrGrGrCrUrCrCrArGrGrArArArUrGrUrUrUrUrArGrAmGmCmUmAmGmAmAmAmUmAmGmCrArArGrUrUrArArArArUrArArGrGrCrUrArGrUrCrCrGrUrUrArUrCrAmAmCmUmUmGmAmAmAmAmAmGmUmGmGmCmAmCmCmGmAmGmUmCmGmGmUmGmCmU*mU*mU*mU
Mean percentage of T cells positive for GFP expression (Donor 1, Template D): 71.80%
Mean percentage of T cells positive for GFP expression (Donor 2, Template D): 72.20%

B7: G013559: AAVS1 SpyCas9 guide RNA, guide sequence SEQ ID NO: 258, chr19:55115823-55115843 (nucleic acid)
guide: mC*mC*mG*rGrCrCrCrUrGrGrGrArArUrArUrArArGrGrGrUrUrUrUrArGrAmGmCmUmAmGmAmAmAmUmAmGmCrArArGrUrUrArArArArUrArArGrGrCrUrArGrUrCrCrGrUrUrArUrCrAmAmCmUmUmGmAmAmAmAmAmGmUmGmGmCmAmCmCmGmAmGmUmCmGmGmUmGmCmU*mU*mU*mU
Mean percentage of T cells positive for GFP expression (Donor 1, Template B): 65.55%
Mean percentage of T cells positive for GFP expression (Donor 2, Template B): 64.05%

B8: G000562: AAVS1 SpyCas9 guide RNA, guide sequence SEQ ID NO: 251, chr19:55115695-55115715 (nucleic acid)
guide: mC*mC*mA*rArUrArUrCrArGrGrArGrArCrUrArGrGrArGrUrUrUrUrArGrAmGmCmUmAmGmAmAmAmUmAmGmCrArArGrUrUrArArArArUrArArGrGrCrUrArGrUrCrCrGrUrUrArUrCrAmAmCmUmUmGmAmAmAmAmAmGmUmGmGmCmAmCmCmGmAmGmUmCmGmGmUmGmCmU*mU*mU*mU
Mean percentage of T cells positive for GFP expression (Donor 1, Template A): 30.60%
Mean percentage of T cells positive for GFP expression (Donor 1, Template B): 34.00%
Mean percentage of T cells positive for GFP expression (Donor 1, Template C): 57.95%
Mean percentage of T cells positive for GFP expression (Donor 1, Template D): 29.65%
Mean percentage of T cells positive for GFP expression (Donor 1, Template OG): 41.75%
Mean percentage of T cells positive for GFP expression (Donor 2, Template A): 41.20%
Mean percentage of T cells positive for GFP expression (Donor 2, Template B): 32.75%
Mean percentage of T cells positive for GFP expression (Donor 2, Template C): 59.10%
Mean percentage of T cells positive for GFP expression (Donor 2, Template D): 27.50%
Mean percentage of T cells positive for GFP expression (Donor 2, Template OG): 37.80%

B9: G013564: AAVS1 SpyCas9 guide RNA, guide sequence SEQ ID NO: 261, chr19:55115836-55115856 (nucleic acid)
guide: mU*mA*mU*rArArGrGrUrGrGrUrCrCrCrArGrCrUrCrGrGrUrUrUrUrArGrAmGmCmUmAmGmAmAmAmUmAmGmCrArArGrUrUrArArArArUrArArGrGrCrUrArGrUrCrCrGrUrUrArUrCrAmAmCmUmUmGmAmAmAmAmAmGmUmGmGmCmAmCmCmGmAmGmUmCmGmGmUmGmCmU*mU*mU*mU
Mean percentage of T cells positive for GFP expression (Donor 1, Template A): 65.95%
Mean percentage of T cells positive for GFP expression (Donor 1, Template B): 61.50%
Mean percentage of T cells positive for GFP expression (Donor 2, Template A): 61.20%
Mean percentage of T cells positive for GFP expression (Donor 2, Template B): 63.45%

B10: G013515: AAVS1 SpyCas9 guide RNA, guide sequence SEQ ID NO: 252, chr19:55115588-55115608 (nucleic acid)
guide: mC*mC*mA*rUrCrGrUrArArGrCrArArArCrCrUrUrArGrGrUrUrUrUrArGrAmGmCmUmAmGmAmAmAmUmAmGmCrArArGrUrUrArArArArUrArArGrGrCrUrArGrUrCrCrGrUrUrArUrCrAmAmCmUmUmGmAmAmAmAmAmGmUmGmGmCmAmCmCmGmAmGmUmCmGmGmUmGmCmU*mU*mU*mU
Mean percentage of T cells positive for GFP expression (Donor 1, Template C): 61.15%
Mean percentage of T cells positive for GFP expression (Donor 2, Template C): 60.95%

B11: G013519: AAVS1 SpyCas9 guide RNA, guide sequence SEQ ID NO: 253, chr19:55115616-55115636 (nucleic acid)
guide: mG*mC*mA*rArGrGrArGrArGrArGrArUrGrGrCrUrCrCrGrUrUrUrUrArGrAmGmCmUmAmGmAmAmAmUmAmGmCrArArGrUrUrArArArArUrArArGrGrCrUrArGrUrCrCrGrUrUrArUrCrAmAmCmUmUmGmAmAmAmAmAmGmUmGmGmCmAmCmCmGmAmGmUmCmGmGmUmGmCmU*mU*mU*mU
Mean percentage of T cells positive for GFP expression (Donor 1, Template D): 73.35%
Mean percentage of T cells positive for GFP expression (Donor 2, Template D): 72.10%

B12: G013562: AAVS1 SpyCas9 guide RNA, guide sequence SEQ ID NO: 259, chr19:55115834-55115854 (nucleic acid)
guide: mA*mA*mU*rArUrArArGrGrUrGrGrUrCrCrCrArGrCrUrGrUrUrUrUrArGrAmGmCmUmAmGmAmAmAmUmAmGmCrArArGrUrUrArArArArUrArArGrGrCrUrArGrUrCrCrGrUrUrArUrCrAmAmCmUmUmGmAmAmAmAmAmGmUmGmGmCmAmCmCmGmAmGmUmCmGmGmUmGmCmU*mU*mU*mU
Mean percentage of T cells positive for GFP expression (Donor 1, Template A): 65.75%
Mean percentage of T cells positive for GFP expression (Donor 1, Template B): 63.60%
Mean percentage of T cells positive for GFP expression (Donor 2, Template A): 62.35%
Mean percentage of T cells positive for GFP expression (Donor 2, Template B): 65.40%

B13: G013565: AAVS1 SpyCas9 guide RNA, guide sequence SEQ ID NO: 262, chr19:55115850-55115870 (nucleic acid)
guide: mG*mG*mA*rUrCrCrUrGrUrGrUrCrCrCrCrGrArGrCrUrGrUrUrUrUrArGrAmGmCmUmAmGmAmAmAmUmAmGmCrArArGrUrUrArArArArUrArArGrGrCrUrArGrUrCrCrGrUrUrArUrCrAmAmCmUmUmGmAmAmAmAmAmGmUmGmGmCmAmCmCmGmAmGmUmCmGmGmUmGmCmU*mU*mU*mU
Mean percentage of T cells positive for GFP expression (Donor 1, Template B): 63.50%
Mean percentage of T cells positive for GFP expression (Donor 2, Template B): 65.00%
